Numbering of substitutions follows the chain as printed.

B1: COVA1-18 (antibody, V domains shown)
VH: EVQLVESGGGLVQPGGSLRLSCAASGFTVSSNYMSWVRQAPGKGLEWVSVIYSGGSTYYADSVKGRFTISRDNSKNTLYLQMNSLRAEDTAVYYCARVEWAAAGTFYWGQGTLVTVSS
VL: QSALTQEPSLTVSPGGTVTLTCGSSTGAVTSGHYPYWFQQKPGQAPRTLIYDTSNKRSWTPARFSGSLLGGKAALTLSGAQPEDEAEYYCLLSYSGVWVFGGGTKLTVL
B2: 001_P1G11 (antibody, V domains shown)
VH: EVQLVQSGTEVKKPGASVKVSCKASGYTFPGYYIHWVRQAPGQGLEWMGWINPNSGVAKSAQKFQGRVTMTRDSSISTVYLDVTSDDTAVYYCARDLVWATVSGTMDVWGQGTTVTVSS
VL: QSALTQPPSASGSPGQSVTISCTGTSSDIGTYNYVSWYQQHPGKAPKLMIYEVTKRPSGVPDRFSGSKSGNTASLTVSGLQADDEGDYYCSSYVGNNNWVFGGGTKLTVL
B3: SEQ ID NOs: 421/425 (HCVR/LCVR) (antibody, V domains shown)
VH: EVQLVQSGAEVKKPGASVKVSCKASGYTFTSYDINWVRQATGQGLEWMGWMNPNSGNTGYAQKFQGRVTMTRNTSISTAYMELSSLRSEDTAVYYCARVVGSSWYPVDAFDIWGQGTRVTVSS
VL: QSVLTQPASVSGSPGQSITISCTGTSSDVGGYNYVSWYQQHPGKAPKLMIYDVSNRPSGVSNRFSGSKSGNTASLTISGLQAEDEADYYCSSYTSSSTLVVFGGGTKLTVL
B4: SEQ ID NOs: 605/609 (HCVR/LCVR) (antibody, V domains shown)
VH: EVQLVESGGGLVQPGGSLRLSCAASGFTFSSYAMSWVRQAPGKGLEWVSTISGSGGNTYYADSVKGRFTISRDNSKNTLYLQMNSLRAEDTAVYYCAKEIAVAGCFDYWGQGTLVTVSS
VL: QTVVTQPPSVSVSPGQTARITCSGDALPKQYAYWYQQKPGQAPVLVIYKDSERPSGIPERFSGSSSGTTVTLTISGVQAEDEADYYCQSADSSGTYRVFGGGTKLTVL
B5: SEQ ID NOs: 65/69 (HCVR/LCVR) (antibody, V domains shown)
VH: QLQLVESGPGLVKPSETLSLTCTVSGGSISSYFWSWIRQPPGKGLEWIGYIYYSGSTNYNPSLKSRVTISVDTSKNQFSLKLSSVTAADTAVYYCARHSQGWLQQAVAFDIWGQGTMVTVSS
VL: not shown
B6: SEQ ID NOs: 57/61 (HCVR/LCVR) (antibody, V domains shown)
VH: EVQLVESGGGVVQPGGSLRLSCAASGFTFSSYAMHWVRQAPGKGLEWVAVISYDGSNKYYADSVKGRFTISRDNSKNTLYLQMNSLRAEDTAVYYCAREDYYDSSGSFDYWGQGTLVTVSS
VL: QSVLTQPASVSGSPGQSITISCTGTSSDVGGYNYVSWYQQHPGKAPKLMIYDVSNRPSGVSNRFSGSKSGNTASLTISGLQAEDEADYYCSSYTSSSTRHWVFGGGTKLTVL
B7: SEQ ID NOs: 637/641 (HCVR/LCVR) (antibody, V domains shown)
VH: QVQLVESGGGLVQPGRSLRLSCAASGFTFDDYAMHWVRQAPGKGLEWVSGISWNSGSIGYADSVKGRFTISRDNAKNSLYLQMNSLRAEDTALYYCAKAEPEVGGYDYYMDVWGKGTMVTVSS
VL: not shown
B8: SEQ ID NOs: 661/665 (HCVR/LCVR) (antibody, V domains shown)
VH: EVQLVESRAEMKKPGESLKISCKGSGYTFTNHWIAWVRQMPGKGLEWMGIIYPGDSDTRYSPSFEGQVTISADKSISTAYLQWSSLKASDTAMYYCARRGYTYGADFYGLDVWGQGTRVTVSS
VL: not shown
B9: SEQ ID NOs: 621/625 (HCVR/LCVR) (antibody, V domains shown)
VH: QVQLVQSGAEVKKPGASVKVSCKVSGYTLTELSMHWVRQAPGKGLEWMGGFDPEDGETIYAQKFQGRVTMTEDTSTDTAYMELSSLRSEDTAVYYCATAYSVDTAMVRGVGYWGQGTLVTVSS
VL: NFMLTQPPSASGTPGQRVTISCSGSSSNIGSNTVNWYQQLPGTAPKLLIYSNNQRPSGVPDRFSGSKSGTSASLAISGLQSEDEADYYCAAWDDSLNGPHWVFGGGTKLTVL
B10: SEQ ID NOs: 557/561 (HCVR/LCVR) (antibody, V domains shown)
VH: EVQLVESGGGVVQPGRSLRLSCAASGFTFSSYAMHWVRQAPGKGLEWVAVISYDGSYKYYADSVKGRFTISRDNSKNTLYLQMNSLTAEDTAVYYCAREGSRQWLVIYFDYWGQGTLVTVSS
VL: AIRMTQSPSSLSASVGDRVTITCRASQSISSYLNWYQQKPGKAPKLLIYAASSLQSGVPSRFSGSGSGTDFTLTISSLQPEDFATYYCQQSYTTFIYTFGQGTKLEIK
B11: SEQ ID NOs: 353/357 (HCVR/LCVR) (antibody, V domains shown)
VH: EVQLVQSGAEVKKPGSSVKVSCKASGGTFSSYAISWVRQAPGQGLEWMGGIIPIFGTTNYAQKFQGRVTITTDESTSTAYMELSSLRSEDTAVYYCARVYSYDSSGYYLEYWGQGTRVTVSS
VL: EIVLTQSPATLSLSPGERATLSCRASQSVSSYLAWYQQKPGQAPRLLIYDASNRATGIPARFSGSGSGTDFTLTISSLEPEDFAVYYCQQRSNWPPSITFGQGTRLEIK
B12: SEQ ID NOs: 461/465 (HCVR/LCVR) (antibody, V domains shown)
VH: EVQLVESGAEVKKPGSSVKVSCKASGGTFSSYAISWVRQAPGQGLEWMGGIIPIFGTANYAQKFQGRATITTDESTSTAYMELSSLGSEDTAVYYCARTHSYDNSGQYFDYWGQGTMVTVSS
VL: B11 VL with E1D, L4M, Y32F, S97R, I98L, Q102G, R105K, L106V, E107D
B13: SEQ ID NOs: 653/657 (HCVR/LCVR) (antibody, V domains shown)
VH: EVQLVESGGGLVQPGRSLRLSCAASGFTFDDYAMHWVRQAPGKGLEWVSGISWNSGSIGYADSVKGRFTISRDNAKNSLYLQMNSLRAEDTALYYCAKMGPDPAHDYGRKNDAFDIWGQGTMVTVSS
VL: DIVMTQSPSSLSASVGDRVTITCRASQSMSSYLNWYQQKPGKAPKLLIYAASSLQSGVPSRFSGSGSGTDFTLTISSLQPEDFATYYCQQSYSTLTFGGGTKLEIK
B14: SEQ ID NOs: 41/45 (HCVR/LCVR) (antibody, V domains shown)
V domain 1: EVQLVQSGGGLVQPGRSLRLSCAASGFTFGEYAMHWVRQAPGKGLEWVSGISWNSGSIDYADSVKGRFTISRDNAKNSLYLQMNSLRAEDTALYYCAKDMGEAVAGTHYGMDVWGQGTMVTASS
V domain 2: QSALTQPPSVSVSPGQTASIPCSGDKLGDIYACWYQQKPGQSPVLVIYQDTKRPSGIPERFSGSNSGNTATLTISGTQAMDEADYYCQAWGSTTAKVFGGGTKLTVP

In one assay the target is T1, stabilized prefusion SARS-CoV-2 S ectodomain (SARS-CoV-2 (Wuhan-Hu-1), UniProt P0DTC2 15-1138). Description: SPR.
As usually defined, the Kd is the constant that tells how readily two partners part at equilibrium. A low value points to a tighter complex. The molecule B1 registered a Kd of no more than 1 nM.

Another assay addresses T1, stabilized prefusion SARS-CoV-2 S …. Description: cell-based or functional assay.
Consider B1, for which the “IC50, neutralization of live SARS-CoV-2 virus” value was 0.067 nM.

For a further assay the target is unchanged. Nature of the assay: not named there; ELISA in Example 4. (In general: ELISA stands for enzyme-linked immunosorbent assay.)
In the case of B2, the binding result is reported as “binds”.
For B3, the binding result is “binds”.
On the same count and under the same terms, then B4, with “binds”; and B5, with “binds”; and B6, with “binds”.
In the case of B7, the binding result is “binds”.
With B8, the binding result is recorded as “binds”.
On the same count and under the same terms, then B9, with “binds”; and B10, with “binds”.
On to B11, for which the binding result is listed as “binds”.
Same read-out and setting: then B12, with “binds”.
On the same count and under the same terms, the result for B13 reads “binds”; that for B14, “binds”.

The values are drawn from patent publication WO2021228904A1 (dated 2021).
